Target: cytosolic fragment of the McpN chemoreceptor (McpN_CF) (Pseudomonas aeruginosa PAO1)
Assay: ITC; VP microcalorimeter, 25°C; 3 mM Tris, 3 mM PIPES, 3 mM MES, 5 mM 2-mercaptoethanol, pH 8.0; 10 µM cytosolic fragment in the sample cell titrated with 12.8 µL aliquots of 113 µM CheV or CheV D238E; 'Two Binding Sites' model

With “CheV D238E (phosphorylation mimic) of Pseudomonas aeruginosa PAO1 (natural protein)” the KD of the first event (high affinity, endothermic) was 0.008 µM, the KD of the second event (lower affinity, exothermic) was 3 µM and the N of the first event was 0.5.

Source: publication PMC12691637
